Target: SeMet-substituted C. elegans ZYG-1 cryptic polo-box (CPB) domain (residues 338-564) (C. elegans)
Assay: SEC-MALS

Substance: SeMet-substituted C. elegans ZYG-1 cryptic polo-box (CPB) domain (residues 338-564) (domain or fragment)
- stoichiometry N: 2

— publication PMC4188077
